Key:
[1] = substrate: CC1(C)S[C@@H]2[C@H](NC(=O)Cc3ccccc3)C(=O)N2[C@H]1C(=O)O; assay: (§1) Ratio of Kcat to Km of Escherichia coli TEM1 assessed as drug hydrolysis by spectrophotometry
[2] = substrate: CC(C)(O/N=C(\C(=O)N[C@@H]1C(=O)N2C(C(=O)[O-])=C(C[n+]3ccccc3)CS[C@H]12)c1csc(N)n1)C(=O)O; assay: as §1
[3] = substrate: Nc1nc(/C(=N/O)C(=O)N[C@@H]2C(=O)N3C(C(=O)O)=C(/C=C4\CCN([C@@H]5CCNC5)C4=O)CS[C@H]23)ns1; assay: as §1
[4] = substrate: CC1(C)S[C@@H]2[C@H](NC(=O)Cc3ccccc3)C(=O)N2[C@H]1C(=O)O; assay: (§2) Activity of Escherichia coli TEM1 assessed as drug hydrolysis by spectrophotometry
[5] = substrate: CC(C)(O/N=C(\C(=O)N[C@@H]1C(=O)N2C(C(=O)[O-])=C(C[n+]3ccccc3)CS[C@H]12)c1csc(N)n1)C(=O)O; assay: as §2
[6] = substrate: O=C(Cc1cccs1)N[C@@H]1C(=O)N2C(C(=O)[O-])=C(C[n+]3ccccc3)CS[C@H]12; assay: as §2
[7] = substrate: Nc1nc(/C(=N/O)C(=O)N[C@@H]2C(=O)N3C(C(=O)O)=C(/C=C4\CCN([C@@H]5CCNC5)C4=O)CS[C@H]23)ns1; assay: as §2

B1: Beta-lactamase TEM (Escherichia coli), P62593 (protein)
chain: MSIQHFRVALIPFFAAFCLPVFAHPETLVKVKDAEDQLGARVGYIELDLNSGKILESFRPEERFPMMSTFKVLLCGAVLSRVDAGQEQLGRRIHYSQNDLVEYSPVTEKHLTDGMTVRELCSAAITMSDNTAANLLLTTIGGPKELTAFLHNMGDHVTRLDRWEPELNEAIPNDERDTTMPAAMATTLRKLLTGELLTLASRQQLIDWMEADKVAGPLLRSALPAGWFIADKSGAGERGSRGIIAALGPDGKPSRIVVIYTTGSQATMDERNRQIAEIGASLIKHW
- kcat/Km [1]: 1e+08 M⁻¹ s⁻¹
- kcat/Km [2]: 12 M⁻¹ s⁻¹
- kcat/Km [3]: 29000 M⁻¹ s⁻¹
- Km [4]: 12 µM
- kcat [4]: 1200 s⁻¹
- Km [5]: 200 µM
- kcat [5]: 0.0023 s⁻¹
- Km [6]: 560 µM
- kcat [6]: 980 s⁻¹
- Km [7]: 300 µM
- kcat [7]: 8.8 s⁻¹

From ChEMBL document CHEMBL1143427, “Interactions of ceftobiprole with beta-lactamases from molecular classes A to D” (Antimicrob Agents Chemother, 2007)
